The target in experiment [1] is peptide with N-terminal AK{acetyl} (acetyl-lysine peptide of Example 12). As to the kind of experiment: single-molecule dynamic sequencing on chip.
Experiment [2] addresses peptide with N-terminal AK (lysine peptide of Example 12). As to the kind of experiment: single-molecule dynamic sequencing on chip.
The target in experiment [3] is T1, labeled peptide X…-FITC with N-terminal valine (FITC on the C-terminal Lys).
T1 construct: also called VA peptide; valine peptide
As to the kind of experiment: fluorescence polarization titration, recognizer 0-4000 nM, labeled peptide fixed. As to the method: (§1) Binding affinity was measured by polarization using a labeled peptide. The polarization response and total intensity measurements were carried out at 20° C. on a microplate fluorometer with 480 nm excitation and 530 nm emission. […] Multiple analyses were performed at increasing recognizer concentration at a fixed concentration of a target peptide to obtain a titration curve. An equilibrium polarization response at each concentration was plotted and fit to calculate the KD.
On the technique in general: Fluorescence polarisation rises when a labelled molecule tumbles more slowly, as on binding a larger partner.

Experiment [4] addresses T2, … after cleavage to N-terminal leucine (LMFAYPDDD) (not fully specified (C-terminus); also: C-terminal azidolysine linked to DNA-streptavidin).
T2 construct: first population of traces, methionine not oxidized
T2 peptide: LMFAYPDDD
As to the kind of experiment: single-molecule dynamic sequencing on chip.

Experiment [5] addresses T3, … after cleavage to N-terminal leucine (LAFAYPDDD) (not fully specified (C-terminus); also: C-terminal azidolysine linked to DNA-streptavidin).
T3 construct: N-terminus exposed by aminopeptidases
T3 peptide: LAFAYPDDD
As to the kind of experiment: single-molecule dynamic sequencing on chip.

In experiment [6] the target is T4, … after cleavage to N-terminal leucine (LIFAYPDDD) (not fully specified (C-terminus); also: C-terminal azidolysine linked to DNA-streptavidin).
T4 construct: N-terminus exposed by aminopeptidases
T4 peptide: LIFAYPDDD
As to the kind of experiment: single-molecule dynamic sequencing on chip.

The target of experiment [7] is T5, RLMoFAYPDDD after cleavage to N-terminal leucine (LMoFAYPDDD) (not fully specified (C-terminus); printed as LMoFAYPDDD; also: C-terminal azidoLys linked to DNA-streptavidin).
T5 construct: second population of traces, methionine oxidized
T5 peptide: L[Met(O)]FAYPDDD
As to the kind of experiment: single-molecule dynamic sequencing on chip.

In experiment [8] the target is T6, synthetic peptide LRLAFAYPDDDK (not fully specified (residue 12)).
T6 construct: also called QP707
T6 peptide: LRLAFAYPDDDK-NH2
As to the kind of experiment: single-molecule dynamic sequencing on chip.

The target in experiment [9] is T7, synthetic peptide LCitLAFAYPDDDK
T7 construct: also called QP789
T7 peptide: L[Cit]LAFAYPDDDK
As to the kind of experiment: single-molecule dynamic sequencing on chip.

Experiment [10] concerns the target T8, … after cleavage to N-terminal leucine (LTFIAYPDDD).
T8 construct: N-terminus exposed by aminopeptidases
T8 peptide: LTFIAYPDDD
As to the kind of experiment: single-molecule dynamic sequencing on chip.

In experiment [11] the target is T9, … after cleavage to N-terminal leucine (LVFAYPDDD) (not fully specified (C-terminus); also: C-terminal azidolysine linked to DNA-streptavidin).
T9 construct: N-terminus exposed by aminopeptidases
T9 peptide: LVFAYPDDD
As to the kind of experiment: single-molecule dynamic sequencing on chip.

Experiment [12] addresses T10, RLpTFIAYPDDD after cleavage to N-terminal leucine (LpTFIAYPDDD).
T10 construct: N-terminus exposed by aminopeptidases
T10 peptide: L[pT]FIAYPDDD[Lys(N3)]
As to the kind of experiment: single-molecule dynamic sequencing on chip.

The target of experiment [13] is T11, target peptide Ala-Ala-Lys-Leu (AAKL).
T11 peptide: AAKL
As to the kind of experiment: purified protein:peptide complex, X-ray crystallography.

In experiment [14] the target is T12, target peptide Met-Ala-Lys-Leu (MAKL).
T12 peptide: MAKL
The description is as above.

In experiment [15] the target is T13, labeled peptide X…-FITC with N-terminal leucine (FITC on the C-terminal Lys).
T13 construct: the sentence itself names only the N-terminal residue; also called LA peptide
As to the kind of experiment: fluorescence polarization titration, recognizer 0-5000 nM, labeled peptide fixed. As to the method:
as §1

The target in experiment [16] is T14, labeled peptide XAKLDEESILKQK-FITC with N-terminal isoleucine.
T14 construct: also called IA peptide
T14 peptide: IAKLDEESILKQK(FITC)
The description is as above. Here is the method: as §1

The target in experiment [17] is T15, labeled peptide XAKLDEESILKQK-FITC with N-terminal methionine.
T15 construct: also called MA peptide
T15 peptide: MAKLDEESILKQK(FITC)
As to the kind of experiment: fluorescence polarization titration, FITC peptide (FIG. 9D). As to the method: as §1

For experiment [18], the target named is T16, RA peptide (XAKLDEESILKQK-FITC, X = R).
T16 construct: also called peptide with N-terminal arginine
T16 peptide: RAKLDEESILKQK(FITC)
As to the kind of experiment: fluorescence polarization titration, 20 C.

The target in experiment [19] is T17, target peptide Arg-Ala-Lys-Leu (RAKL).
T17 peptide: RAKL
As to the kind of experiment: purified protein:peptide complex, X-ray crystallography.

For experiment [20], the target named is T16, RA peptide (XAKLDEESILKQK-FITC, X = R). As to the kind of experiment: fluorescence polarization titration, PS1122 0-5000 nM. Here is the method: as §1
Fluorescence polarization assays were performed with all candidates, and single point binding responses were measured at a fixed concentration of the binders (FIG. 13A). […] We carried out multiple polarization binding titration analysis at increasing concentration of binder protein, and the Kds were determined from the titration curves (FIG. 13B).

Non-standard residues stand in square brackets, D forms with d. No end group written: not given here. *: point of attachment. FITC = O=C1OC2(c3ccc(O)cc3Oc3cc(O)ccc32)c2ccc(NC(=S)*)cc21; Lys(N3) = [N-]=[N+]=NCCCC[C@H](N)C(=O)O; pT = C[C@@H](OP(=O)(O)O)[C@H](N)C(=O)O; Met(O) = CS(=O)CC[C@H](N)C(=O)O; Cit = NC(=O)NCCC[C@H](N)C(=O)O

B1: PS1165 (other)
chain: MGLENSLETLRFSISNLSMQTHAARMRTFMYWPSSVPVQPEQLASAGFYYVGRNDDVKCFCCDGGLRCWESGDDPWVEHAKWFPRCEFLIRMKGQEFVDEIQGRYPHLLEQLLSG
notes: alanine recognizer
For B1, the figures for the “RS mean pulse duration (PD)” value in experiment [1] and in experiment [2] were 2.2 s and 1.3 s, respectively.

B2: PS961 (designed binder)
chain: MPTAASATESAIEDTPAPARPEVDGRTKPKRQPRYHVVLWDDDDHTYQYVVVMLRSLFGHPPSRGYRMAKEMDTQGRVIVLTTTREHAELKRDQIHAFGRDRLLARSKGSMKASIEAEE
notes: PS557 with N41D, Q55R, E63S, L68M, V72M, Y100R; His/biotinylation tag of the assay construct is not specified; also called Planctomycetes ClpS variant
Regarding B2, the Kd in [3] amounted to 144 nM; in experiment [15], 55 nM; in [16], 68 nM; in [17], 947 nM. The “median pulse duration (PD)” value in [4] stood at 0.86 s; in experiment [5] it was 1.29 s; in experiment [6] it was 2.22 s; in experiment [7] it was 0.35 s; in experiment [8], 0.43 s; in experiment [9], 0.78 s. Also, the “median pulse duration (PD)” value in [11] came out at 4.21 s. The “RS mean pulse duration (PD)” value was found to be 1.2 s in experiment [10] and 0.3 s in experiment [12]. For the same molecule, the binding result in [13] and in [14] was “binds” throughout.

B3: PS1122 (designed binder)
chain: MHSKFSHAGRICGAKFKVGEPIYRCKECSFDDTCVLCVNCFNPKDHLGHHVYTTICTEFNNGECDCGDKTAWNHTLFCKAEEG
notes: PS621 with T47L, I63E, E70T; on chip labeled with streptavidin-tetraCy3
On to B3, for which the Kd in experiment [18] and in experiment [20] was 70 nM throughout. In addition, the binding result in experiment [19] is “binds”.

The Kd is the free concentration of one partner at which half of the binding sites on the other are occupied at equilibrium, for simple one-to-one binding.

Values taken from patent publication US20240272170A1 (QUANTUM SI, published 2024).
